Experimental data from US20180094059A1.
Each block holds one binder with its values, some of them ahead of it.

Target: antigen- and TRAIL receptor-expressing Colo205 cells
Experiment: flow cytometry, Colo205 cells

EC50: 0.58 nM
B1: scFvhu225-EHD2-scTRAIL3-… (protein)
chain: DYKDDDDKGGGGSGTEVQLVESGGGLVQPGGSLRLSCAASGFSLTNYGVHWVRQAPGKGLEWLGVIWSGGNTDYNTPFTSRFTISRDNSKNTLYLQMNSLRAEDTAVYYCARALTYYDYEFAYWGQGTTVTVSSGGGGSGGGGSGGGGSDIQLTQSPSFLSASVGDRVTITCRASQSIGTNIHWYQQKPGKAPKLLIKYASESISGVPSRFSGSGSGTEFTLTISSLQPEDFATYYCQQNNNWPTTFGAGTKLEIKRAAAGGSGGDFTPPTVKILQSSCDGGGHFPPTIQLLCLVSGYTPGTINITWLEDGQVMDVDLSTASTTQEGELASTQSELTLSQKHWLSDRTYTCQVTYQGHTFEDSTKKCADSNGGSGGASSGGGPQRVAAHITGTRGRSNTLSSPNSKNEKALGRKINSWESSRSGHSFLSNLHLRNGELVIHEKGFYYIYSQTYFRFQEEIKENTKNDKQMVQYIYKYTSYPDPILLMKSARNSCWSKDAEYGLYSIYQGGIFELKENDRIFVSVTNEHLIDMDHEASFFGAFLVGGGPQRVAAHITGTRGRSNTLSSPNSKNEKALGRKINSWESSRSGHSFLSNLHLRNGELVIHEKGFYYIYSQTYFRFQEEIKENTKNDKQMVQYIYKYTSYPDPILLMKSARNSCWSKDAEYGLYSIYQGGIFELKENDRIFVSVTNEHLIDMDHEASFFGAFLVGGGPQRVAAHITGTRGRSNTLSSPNSKNEKALGRKINSWESSRSGHSFLSNLHLRNGELVIHEKGFYYIYSQTYFRFQEEIKENTKNDKQMVQYIYKYTSYPDPILLMKSARNSCWSKDAEYGLYSIYQGGIFELKENDRIFVSVTNEHLIDMDHEASFFGAFLVG

EC50: 32.5 nM
B2: dsDb3M6-scTRAIL3-… (protein)
chain: DYKDDDDKGGGGSGTEVQLLESGGGLVQPGGSLRLSCAASGFTFSHYVMAWVRQAPGKCLEWVSSISSSGGWTLYADSVKGRFTISRDNSKNTLYLQMNSLRAEDTAVYYCTRGLKMATIFDYWGQGTLVTVSSGGGGSQSALTQPASVSGSPGQSITISCTGTSSDVGSYNVVSWYQQHPGKAPKLIIYEVSQRPSGVSNRFSGSKSGNTASLTISGLQTEDEADYYCSSYAGSSIFVIFGCGTKVTVLAAAGGSGGGPQRVAAHITGTRGRSNTLSSPNSKNEKALGRKINSWESSRSGHSFLSNLHLRNGELVIHEKGFYYIYSQTYFRFQEEIKENTKNDKQMVQYIYKYTSYPDPILLMKSARNSCWSKDAEYGLYSIYQGGIFELKENDRIFVSVTNEHLIDMDHEASFFGAFLVGGGPQRVAAHITGTRGRSNTLSSPNSKNEKALGRKINSWESSRSGHSFLSNLHLRNGELVIHEKGFYYIYSQTYFRFQEEIKENTKNDKQMVQYIYKYTSYPDPILLMKSARNSCWSKDAEYGLYSIYQGGIFELKENDRIFVSVTNEHLIDMDHEASFFGAFLVGGGPQRVAAHITGTRGRSNTLSSPNSKNEKALGRKINSWESSRSGHSFLSNLHLRNGELVIHEKGFYYIYSQTYFRFQEEIKENTKNDKQMVQYIYKYTSYPDPILLMKSARNSCWSKDAEYGLYSIYQGGIFELKENDRIFVSVTNEHLIDMDHEASFFGAFLVG
